B1: VH445 synthetic cyclic peptide (peptide)
peptide: Propionyl-[dC]MPRLRGC-NH2
modifications: disulfide 1-8
notes: printed cMPRLRGC, lower case c = (D)-Cys; also called VH0445; source: synthetic peptide
B2: VH4127 synthetic cyclic peptide (peptide)
chain: Propionyl-[dC]M[Thz]RLRG[Pen]-NH2
modifications: disulfide 1-8
B3: VH434 synthetic cyclic peptide (peptide)
peptide: Propionyl-CMPRLRGC-NH2
modifications: disulfide 1-8 (inferred)
notes: 8-residue truncation of VH411; source: synthetic peptide

Bridges are numbered along the chain shown (N, C = ends). [ ]: non-standard residue; d: D form. The star is where a group is joined. Pen = CC(C)(S)[C@H](N)C(=O)O; Thz = O=C(O)[C@@H]1CSCN1; Propionyl = CCC(=O)*

T1 sequence (P35951 22-790): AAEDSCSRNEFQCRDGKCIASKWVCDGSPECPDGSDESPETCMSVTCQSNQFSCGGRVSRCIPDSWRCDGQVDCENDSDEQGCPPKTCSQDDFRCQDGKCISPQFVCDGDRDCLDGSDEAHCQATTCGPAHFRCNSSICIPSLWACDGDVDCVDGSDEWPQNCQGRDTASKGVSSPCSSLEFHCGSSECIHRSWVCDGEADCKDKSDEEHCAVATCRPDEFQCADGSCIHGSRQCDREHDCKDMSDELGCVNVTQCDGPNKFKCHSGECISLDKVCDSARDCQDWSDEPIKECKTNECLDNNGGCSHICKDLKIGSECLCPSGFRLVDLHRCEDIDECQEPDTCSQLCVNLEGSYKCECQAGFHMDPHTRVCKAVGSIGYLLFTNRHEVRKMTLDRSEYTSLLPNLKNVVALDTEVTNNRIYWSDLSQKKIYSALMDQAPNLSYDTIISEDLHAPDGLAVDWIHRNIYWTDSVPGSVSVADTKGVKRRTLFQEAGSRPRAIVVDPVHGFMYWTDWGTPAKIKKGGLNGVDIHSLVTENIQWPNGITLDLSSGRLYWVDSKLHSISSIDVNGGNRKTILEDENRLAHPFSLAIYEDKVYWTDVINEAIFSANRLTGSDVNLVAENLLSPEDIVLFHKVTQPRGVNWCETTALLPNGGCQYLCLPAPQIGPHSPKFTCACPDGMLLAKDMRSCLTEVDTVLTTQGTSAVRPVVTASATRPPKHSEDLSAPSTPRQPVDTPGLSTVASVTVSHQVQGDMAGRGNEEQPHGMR

This assay has as its target T1, recombinant mouse LDLR (His-tagged), extracellular domain (mouse, UniProt P35951 22-790).
T1 construct: mouse low-density lipoprotein receptor, extracellular domain; immobilised on a NiHC sensor chip; in the functional rows it stands for the endogenous LDLR of the mouse; also called mLDLR; murine LDLR; source: bought: Sino Biological
In words: SPR; hLDLR or mLDLR (His-tagged) immobilised on a NiHC sensor chip at 35-60 fmol/mm^2; Biacore T200, 25°C; 50 mM HEPES-NaOH pH7.4, 150 mM NaCl, 0.005% Tween-20, 50μM EDTA; single-cycle kinetics; 1:1 Langmuir model. As to conditions: both partners purified. A general note: In SPR one partner is held on a chip, and binding of the other changes the refractive index at the surface.
By Kd is commonly meant the equilibrium constant for the complex coming apart. Turning to B1, the Kd came to 233 ± 24 nM.

As to B2, the equilibrium dissociation constant (Kd) worked out at 36 ± 1 nM.

Take B3: the Kd is 280 ± 33 nM.

The record behind these values is PMC5828360 (PLoS ONE, 2018).
